This note sets out measurements from paper PMC4161250.

A word on the Km: it is the concentration of substrate that gives half-maximal velocity. As a reminder, the kcat/Km is the turnover number divided by the Michaelis constant.

Substrate in this series: O=[N+]([O-])c1ccc(OP(=O)(O)O)cc1
The series is described as follows: purified protein. As to conditions: 2 mM Mn2+, 50 mM Tris-HCl pH 8.0, 37 °C.

B1: StpA (Enterococcus faecium DO) (protein)
chain: MQIEYQSDVGRRRNTNQDYASVFTSRSGLKLAVLADGMGGHRAGDIASQMAVTNLGEAWEKQEAVDDEKIAQWFIQSIQEENMLIYQRGQEQPEYNGMGTTIVAAALSDDWFTIANVGDSRAYLIREDKIMQLTEDHSLVNELVKSGEISEEMAVNHPRKNILTRSVGMPGTVEVDVSTHLWQLKDRLLLCSDGLTNMLSEEEIGTIINQEGPLSHKVTELIDRANEAGGADNITVLLIEYKEDSV
As for B1, the Michaelis constant (Km) was 660 ± 90 µM, the kcat was 1,200 ± 100 min^-1 and the specificity constant (kcat/Km) was 30000 ± 4830 M⁻¹ s⁻¹.
